From patent publication US20030036108A1

Assays:
[1] = target: CD4 naturally expressed on Jurkat T cells (human) (UniProt P01730); experiment: cell-based or functional assay
[2] = target: CXCR4 naturally expressed on Jurkat T cells (human) (UniProt P61073); experiment: cell-based or functional assay
CXCR4 naturally expressed on Jurkat T cells (human), sequence (P61073 whole entry): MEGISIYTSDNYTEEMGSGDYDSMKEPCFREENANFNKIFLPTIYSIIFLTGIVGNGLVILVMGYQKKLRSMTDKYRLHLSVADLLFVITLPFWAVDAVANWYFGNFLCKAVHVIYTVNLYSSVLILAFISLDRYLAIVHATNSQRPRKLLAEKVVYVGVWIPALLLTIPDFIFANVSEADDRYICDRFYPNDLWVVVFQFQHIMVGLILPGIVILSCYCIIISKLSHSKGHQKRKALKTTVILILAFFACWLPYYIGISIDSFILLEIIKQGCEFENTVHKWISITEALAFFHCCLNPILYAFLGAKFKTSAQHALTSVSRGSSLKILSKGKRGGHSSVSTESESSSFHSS

gp143/HXB2, a carboxyl-terminus truncated form of the Env (gp160) of HIV-1 strain HXB2, expressed on CHO or 293T cells (from UniProt P04578 31-714)
fusion ratio (460 nm / 530 nm emission) of 293T cells expressing gp143/HXB2 with Jurkat cells [1]: 1.54
fusion ratio (460 nm / 530 nm emission) of 293T cells expressing gp143/HXB2 with Jurkat cells [2]: 1.54
